According to patent US20210388087A1 (Chugai, published 2021):

T1: Human CD3eg linker (human)
T1 construct: Single-chain construct; also called recombinant human CD3
T1 chain: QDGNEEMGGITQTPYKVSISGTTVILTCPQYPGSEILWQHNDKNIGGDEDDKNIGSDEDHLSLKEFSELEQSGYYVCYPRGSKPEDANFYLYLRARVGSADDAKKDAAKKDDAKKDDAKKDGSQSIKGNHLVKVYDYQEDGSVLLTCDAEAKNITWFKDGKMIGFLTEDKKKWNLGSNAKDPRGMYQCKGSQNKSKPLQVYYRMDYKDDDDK


Target: T1, Human CD3eg linker
Assay: SPR; fold vs parent H183/L072

Row | Binder | fold change of affinity
1 | H183/L072 VL K50H (antibody, name in Kabat numbering, V domains shown) VH: QVQLVESGGGLVQPGRSLRLSCAASGFTFSNAWMHWVRQAPGKGLEWVAQIKDKGNAYAAYYAPSVKGRFTISRDDSKNSIYLQMNSLKTEDTAVYYCHYVHYASASTVLPAFGVDAWGQGTTVTVSS VL: DIVMTQSPLSLPVTPGEPASISCQASQELVHMNRNTYLHWYQQKPGQAPRLLIYHVSNRFPGVPDRFSGSGSGTDFTLKISRVEAEDVGVYYCAQGTSVPFTFGQGTKLEIK | 0 fold
2 | H183/L072 VL L27bD (antibody, name in Kabat numbering, V domains shown) VH: QVQLVESGGGLVQPGRSLRLSCAASGFTFSNAWMHWVRQAPGKGLEWVAQIKDKGNAYAAYYAPSVKGRFTISRDDSKNSIYLQMNSLKTEDTAVYYCHYVHYASASTVLPAFGVDAWGQGTTVTVSS VL: DIVMTQSPLSLPVTPGEPASISCQASQEDVHMNRNTYLHWYQQKPGQAPRLLIYKVSNRFPGVPDRFSGSGSGTDFTLKISRVEAEDVGVYYCAQGTSVPFTFGQGTKLEIK | 0 fold
3 | H183/L072 VL K50T (antibody, name in Kabat numbering, V domains shown) VH: QVQLVESGGGLVQPGRSLRLSCAASGFTFSNAWMHWVRQAPGKGLEWVAQIKDKGNAYAAYYAPSVKGRFTISRDDSKNSIYLQMNSLKTEDTAVYYCHYVHYASASTVLPAFGVDAWGQGTTVTVSS VL: DIVMTQSPLSLPVTPGEPASISCQASQELVHMNRNTYLHWYQQKPGQAPRLLIYTVSNRFPGVPDRFSGSGSGTDFTLKISRVEAEDVGVYYCAQGTSVPFTFGQGTKLEIK | 0 fold
4 | H183/L072 VL K50R (antibody, name in Kabat numbering, V domains shown) VH: QVQLVESGGGLVQPGRSLRLSCAASGFTFSNAWMHWVRQAPGKGLEWVAQIKDKGNAYAAYYAPSVKGRFTISRDDSKNSIYLQMNSLKTEDTAVYYCHYVHYASASTVLPAFGVDAWGQGTTVTVSS VL: DIVMTQSPLSLPVTPGEPASISCQASQELVHMNRNTYLHWYQQKPGQAPRLLIYRVSNRFPGVPDRFSGSGSGTDFTLKISRVEAEDVGVYYCAQGTSVPFTFGQGTKLEIK | 0 fold
5 | H183/L072 VL K50S (antibody, name in Kabat numbering, V domains shown) VH: QVQLVESGGGLVQPGRSLRLSCAASGFTFSNAWMHWVRQAPGKGLEWVAQIKDKGNAYAAYYAPSVKGRFTISRDDSKNSIYLQMNSLKTEDTAVYYCHYVHYASASTVLPAFGVDAWGQGTTVTVSS VL: DIVMTQSPLSLPVTPGEPASISCQASQELVHMNRNTYLHWYQQKPGQAPRLLIYSVSNRFPGVPDRFSGSGSGTDFTLKISRVEAEDVGVYYCAQGTSVPFTFGQGTKLEIK | 0 fold
6 | H183/L072 VL L27bA (antibody, name in Kabat numbering, V domains shown) VH: QVQLVESGGGLVQPGRSLRLSCAASGFTFSNAWMHWVRQAPGKGLEWVAQIKDKGNAYAAYYAPSVKGRFTISRDDSKNSIYLQMNSLKTEDTAVYYCHYVHYASASTVLPAFGVDAWGQGTTVTVSS VL: DIVMTQSPLSLPVTPGEPASISCQASQEAVHMNRNTYLHWYQQKPGQAPRLLIYKVSNRFPGVPDRFSGSGSGTDFTLKISRVEAEDVGVYYCAQGTSVPFTFGQGTKLEIK | 0.7 fold
7 | H183/L072 VL L27bE (antibody, name in Kabat numbering, V domains shown) VH: QVQLVESGGGLVQPGRSLRLSCAASGFTFSNAWMHWVRQAPGKGLEWVAQIKDKGNAYAAYYAPSVKGRFTISRDDSKNSIYLQMNSLKTEDTAVYYCHYVHYASASTVLPAFGVDAWGQGTTVTVSS VL: DIVMTQSPLSLPVTPGEPASISCQASQEEVHMNRNTYLHWYQQKPGQAPRLLIYKVSNRFPGVPDRFSGSGSGTDFTLKISRVEAEDVGVYYCAQGTSVPFTFGQGTKLEIK | 0 fold

Continued, values first:

Row | fold change of affinity | Binder
8 | 0 fold | H183/L072 VL L27bQ (antibody, name in Kabat numbering, V domains shown) VH: QVQLVESGGGLVQPGRSLRLSCAASGFTFSNAWMHWVRQAPGKGLEWVAQIKDKGNAYAAYYAPSVKGRFTISRDDSKNSIYLQMNSLKTEDTAVYYCHYVHYASASTVLPAFGVDAWGQGTTVTVSS VL: DIVMTQSPLSLPVTPGEPASISCQASQEQVHMNRNTYLHWYQQKPGQAPRLLIYKVSNRFPGVPDRFSGSGSGTDFTLKISRVEAEDVGVYYCAQGTSVPFTFGQGTKLEIK
9 | 0 fold | H183/L072 VL L27bK (antibody, name in Kabat numbering, V domains shown) VH: QVQLVESGGGLVQPGRSLRLSCAASGFTFSNAWMHWVRQAPGKGLEWVAQIKDKGNAYAAYYAPSVKGRFTISRDDSKNSIYLQMNSLKTEDTAVYYCHYVHYASASTVLPAFGVDAWGQGTTVTVSS VL: DIVMTQSPLSLPVTPGEPASISCQASQEKVHMNRNTYLHWYQQKPGQAPRLLIYKVSNRFPGVPDRFSGSGSGTDFTLKISRVEAEDVGVYYCAQGTSVPFTFGQGTKLEIK
10 | 0.5 fold | H183/L072 VL L27bI (antibody, name in Kabat numbering, V domains shown) VH: QVQLVESGGGLVQPGRSLRLSCAASGFTFSNAWMHWVRQAPGKGLEWVAQIKDKGNAYAAYYAPSVKGRFTISRDDSKNSIYLQMNSLKTEDTAVYYCHYVHYASASTVLPAFGVDAWGQGTTVTVSS VL: DIVMTQSPLSLPVTPGEPASISCQASQEIVHMNRNTYLHWYQQKPGQAPRLLIYKVSNRFPGVPDRFSGSGSGTDFTLKISRVEAEDVGVYYCAQGTSVPFTFGQGTKLEIK
11 | 0 fold | H183/L072 VL L27bH (antibody, name in Kabat numbering, V domains shown) VH: QVQLVESGGGLVQPGRSLRLSCAASGFTFSNAWMHWVRQAPGKGLEWVAQIKDKGNAYAAYYAPSVKGRFTISRDDSKNSIYLQMNSLKTEDTAVYYCHYVHYASASTVLPAFGVDAWGQGTTVTVSS VL: DIVMTQSPLSLPVTPGEPASISCQASQEHVHMNRNTYLHWYQQKPGQAPRLLIYKVSNRFPGVPDRFSGSGSGTDFTLKISRVEAEDVGVYYCAQGTSVPFTFGQGTKLEIK
12 | 0.3 fold | H183/L072 VL L27bF (antibody, name in Kabat numbering, V domains shown) VH: QVQLVESGGGLVQPGRSLRLSCAASGFTFSNAWMHWVRQAPGKGLEWVAQIKDKGNAYAAYYAPSVKGRFTISRDDSKNSIYLQMNSLKTEDTAVYYCHYVHYASASTVLPAFGVDAWGQGTTVTVSS VL: DIVMTQSPLSLPVTPGEPASISCQASQEFVHMNRNTYLHWYQQKPGQAPRLLIYKVSNRFPGVPDRFSGSGSGTDFTLKISRVEAEDVGVYYCAQGTSVPFTFGQGTKLEIK
13 | 1.8 fold | H183/L072 VL L27bP (antibody, name in Kabat numbering, V domains shown) VH: QVQLVESGGGLVQPGRSLRLSCAASGFTFSNAWMHWVRQAPGKGLEWVAQIKDKGNAYAAYYAPSVKGRFTISRDDSKNSIYLQMNSLKTEDTAVYYCHYVHYASASTVLPAFGVDAWGQGTTVTVSS VL: DIVMTQSPLSLPVTPGEPASISCQASQEPVHMNRNTYLHWYQQKPGQAPRLLIYKVSNRFPGVPDRFSGSGSGTDFTLKISRVEAEDVGVYYCAQGTSVPFTFGQGTKLEIK
14 | 0 fold | H183/L072 VL L27bN (antibody, name in Kabat numbering, V domains shown) VH: QVQLVESGGGLVQPGRSLRLSCAASGFTFSNAWMHWVRQAPGKGLEWVAQIKDKGNAYAAYYAPSVKGRFTISRDDSKNSIYLQMNSLKTEDTAVYYCHYVHYASASTVLPAFGVDAWGQGTTVTVSS VL: DIVMTQSPLSLPVTPGEPASISCQASQENVHMNRNTYLHWYQQKPGQAPRLLIYKVSNRFPGVPDRFSGSGSGTDFTLKISRVEAEDVGVYYCAQGTSVPFTFGQGTKLEIK
15 | 0.7 fold | H183/L072 VL L27bM (antibody, name in Kabat numbering, V domains shown) VH: QVQLVESGGGLVQPGRSLRLSCAASGFTFSNAWMHWVRQAPGKGLEWVAQIKDKGNAYAAYYAPSVKGRFTISRDDSKNSIYLQMNSLKTEDTAVYYCHYVHYASASTVLPAFGVDAWGQGTTVTVSS VL: DIVMTQSPLSLPVTPGEPASISCQASQEMVHMNRNTYLHWYQQKPGQAPRLLIYKVSNRFPGVPDRFSGSGSGTDFTLKISRVEAEDVGVYYCAQGTSVPFTFGQGTKLEIK
